Assay results published in the supplement of paper PMC7125110.
± gives the standard error. For part of these data: This sample holds only a part of the variants without activity.

B1: glmS ribozyme (parent)
chain: AUAAAAGCGCCAGAACUACAGAAAUGUAGUUGACGAGGAGGAGGUUUAUCGAAUUUUCGGCGGAUGCCUCCAAA

How the values were obtained:
Settings in all cases: with glucosamine-6-phosphate
[1] = variants of: B1; experiment: kcat; higher = faster cleavage; RNA array
Summary of the method: (§1)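 A hybridised Cy3 probe tracked barcoded ribozyme variants, transcribed in situ by E. coli RNA polymerase on sequenced MiSeq chips, at 37 °C. The variants received 40 μM to 10 mM glucosamine-6-phosphate in HEPES/KCl/Mg(OAc)2 buffer. kobs came from decay fits and kcat and KM from weighted Michaelis–Menten fits.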

[2] = variants of: B1; experiment: KM; higher = weaker cofactor use; RNA array
Summary of the method: as §1

[3] = variants of: B1; experiment: self-cleavage kobs at 40 uM GlcN6P; higher = faster cleavage; RNA array
Summary of the method: as §1

[4] = variants of: B1; experiment: self-cleavage kobs at 160 uM GlcN6P; higher = faster cleavage; RNA array
Summary of the method: as §1

[5] = variants of: B1; experiment: self-cleavage kobs at 640 uM GlcN6P; higher = faster cleavage; RNA array
Summary of the method: as §1

[6] = variants of: B1; experiment: self-cleavage kobs at 2500 uM GlcN6P; higher = faster cleavage; RNA array
Summary of the method: as §1

[7] = variants of: B1; experiment: self-cleavage kobs at 10000 uM GlcN6P; higher = faster cleavage; RNA array
Summary of the method: as §1

| Variant | kcat [1] | KM [2] | self-cleavage kobs at 40 uM GlcN6P [3] | self-cleavage kobs at 160 uM GlcN6P [4] | self-cleavage kobs at 640 uM GlcN6P [5] | self-cleavage kobs at 2500 uM GlcN6P [6] | self-cleavage kobs at 10000 uM GlcN6P [7] |
| --- | --- | --- | --- | --- | --- | --- | --- |
| G32A A42G | 0.00505 ± 0.0014 s⁻¹ | 3140 ± 1200 µM | 7.49e-05 ± 1.3e-05 s⁻¹ | 0.000193 ± 3.2e-05 s⁻¹ | 0.00133 ± 0.00025 s⁻¹ | 0.00281 ± 0.00043 s⁻¹ | 0.00357 ± 0.00047 s⁻¹ |
| G59U C71U | 5.45e-05 ± 7.2e-06 s⁻¹ |  |  |  |  | 2.79e-05 ± 1.3e-05 s⁻¹ | 4.88e-05 ± 8.4e-06 s⁻¹ |
| A6C A14U | 1.09e-05 ± 1.1e-06 s⁻¹ |  |  |  |  |  |  |
| G32U A39U C67G | 0.000203 ± 2.3e-05 s⁻¹ | 4340 ± 1100 µM | < 1e-05 s⁻¹ |  |  | 7.96e-05 ± 1.7e-05 s⁻¹ | 0.00014 ± 2e-05 s⁻¹ |
| U55C C67A | 0.000193 ± 6.1e-05 s⁻¹ |  |  |  | 0.000133 ± 2.3e-05 s⁻¹ | 0.000137 ± 2.4e-05 s⁻¹ | 0.00029 ± 5.7e-05 s⁻¹ |
| C11U A33C | 1.8e-05 ± 2.7e-06 s⁻¹ | 8710 ± 2600 µM |  |  |  |  |  |
| A14U G29C U46G C70A | 2.85e-05 ± 1.1e-05 s⁻¹ |  |  |  |  |  |  |
| G29U G37U | < 1e-05 s⁻¹ |  |  |  |  |  | < 1e-05 s⁻¹ |
| A15G G59A | 0.000151 ± 1.1e-05 s⁻¹ | 3440 ± 750 µM |  |  |  | 6.85e-05 ± 2.3e-05 s⁻¹ | 0.000112 ± 1.5e-05 s⁻¹ |
| A53G U56G | 0.0121 ± 0.004 s⁻¹ | 1150 ± 530 µM | 0.000497 ± 5.8e-05 s⁻¹ | 0.00116 ± 0.00024 s⁻¹ | 0.00411 ± 0.00066 s⁻¹ | 0.00635 ± 0.0012 s⁻¹ | 0.0161 ± 0.0025 s⁻¹ |
| A53G U56C | 0.00882 ± 0.0023 s⁻¹ | 2730 ± 950 µM | 0.000169 ± 2.5e-05 s⁻¹ | 0.000447 ± 0.00011 s⁻¹ | 0.00135 ± 0.00025 s⁻¹ | 0.00428 ± 0.001 s⁻¹ | 0.0073 ± 0.0011 s⁻¹ |
| G13U C67G | < 1e-05 s⁻¹ |  | < 1e-05 s⁻¹ |  |  |  |  |
| C16U A39G | 0.0255 ± 0.0088 s⁻¹ | 866 ± 400 µM | 0.00133 ± 0.00019 s⁻¹ | 0.00365 ± 0.00075 s⁻¹ | 0.00828 ± 0.0019 s⁻¹ | 0.0177 ± 0.0063 s⁻¹ | 0.0356 ± 0.0085 s⁻¹ |
| C34G C70U | < 1e-05 s⁻¹ |  |  |  |  |  | < 1e-05 s⁻¹ |
| C11U G40U | 0.000224 ± 2.2e-05 s⁻¹ | 3980 ± 910 µM |  |  | 2.87e-05 ± 7.5e-06 s⁻¹ | 0.000111 ± 3.6e-05 s⁻¹ | 0.000159 ± 1.6e-05 s⁻¹ |
| U31G A52U | 8.72e-05 ± 5.4e-06 s⁻¹ | 1520 ± 320 µM | < 1e-05 s⁻¹ |  |  | 5.7e-05 ± 9.5e-06 s⁻¹ | 7.41e-05 ± 1.1e-05 s⁻¹ |
| C16U G32U U69A | 9.39e-05 ± 2e-05 s⁻¹ |  |  |  | 9.19e-05 ± 1.8e-05 s⁻¹ |  | 0.000104 ± 1.9e-05 s⁻¹ |
| C70A C71A | 5.3e-05 ± 3.2e-06 s⁻¹ | 181 ± 74 µM |  |  | 4.65e-05 ± 9.4e-06 s⁻¹ | 4.82e-05 ± 7.4e-06 s⁻¹ | 5.11e-05 ± 9.4e-06 s⁻¹ |

| Variant | kcat [1] | KM [2] | self-cleavage kobs at 40 uM GlcN6P [3] | self-cleavage kobs at 160 uM GlcN6P [4] | self-cleavage kobs at 640 uM GlcN6P [5] | self-cleavage kobs at 2500 uM GlcN6P [6] | self-cleavage kobs at 10000 uM GlcN6P [7] |
| --- | --- | --- | --- | --- | --- | --- | --- |
| C10U C70A | 2.4e-05 ± 6e-06 s⁻¹ |  |  |  |  | 3.1e-05 ± 1.5e-05 s⁻¹ |  |
| C10G A14G G32C G37A C67G | 2.2e-05 ± 6.4e-06 s⁻¹ |  |  |  |  |  |  |
| A36C C70U | < 1e-05 s⁻¹ |  | < 1e-05 s⁻¹ |  |  |  |  |
| G40U G66A | 0.00396 ± 0.00044 s⁻¹ | 2220 ± 390 µM | 8.13e-05 ± 1.2e-05 s⁻¹ | 0.000207 ± 5.2e-05 s⁻¹ | 0.000901 ± 0.00016 s⁻¹ | 0.00208 ± 0.0004 s⁻¹ | 0.00326 ± 0.00035 s⁻¹ |
| C11U A12C | 9.58e-05 ± 3.4e-06 s⁻¹ | 1050 ± 120 µM |  |  | 3.76e-05 ± 7e-06 s⁻¹ | 6.24e-05 ± 1.2e-05 s⁻¹ | 8.81e-05 ± 9e-06 s⁻¹ |
| A6G U54C | 0.000547 ± 9.2e-05 s⁻¹ | 2590 ± 710 µM |  | 4.65e-05 ± 1.2e-05 s⁻¹ | 0.0001 ± 1.3e-05 s⁻¹ | 0.000351 ± 7.7e-05 s⁻¹ | 0.000427 ± 5.3e-05 s⁻¹ |
| U30A A52U C70U | 7.84e-05 ± 3.9e-06 s⁻¹ | 89.4 ± 24 µM |  | 4.9e-05 ± 1.3e-05 s⁻¹ | 7.62e-05 ± 1.7e-05 s⁻¹ | 7.31e-05 ± 1.4e-05 s⁻¹ | 7.39e-05 ± 2.7e-05 s⁻¹ |
| U31A C70U | 0.0129 ± 0.0056 s⁻¹ |  | 0.000386 ± 5.3e-05 s⁻¹ | 0.000843 ± 0.00019 s⁻¹ | 0.00235 ± 0.00031 s⁻¹ | 0.0115 ± 0.0032 s⁻¹ | 0.0113 ± 0.0017 s⁻¹ |
| G32A U47C | 0.000343 ± 5.5e-05 s⁻¹ | 2450 ± 760 µM |  |  | 7.19e-05 ± 1.5e-05 s⁻¹ | 0.000185 ± 2.3e-05 s⁻¹ | 0.000258 ± 4.4e-05 s⁻¹ |
| C16G U57G | 2.25e-05 ± 2.8e-06 s⁻¹ |  | < 1e-05 s⁻¹ |  |  |  |  |
| A15G G40A | 0.0072 ± 0.0015 s⁻¹ | 1290 ± 400 µM | 0.000316 ± 8.2e-05 s⁻¹ | 0.000754 ± 0.00016 s⁻¹ | 0.00207 ± 0.00049 s⁻¹ | 0.00475 ± 0.00096 s⁻¹ | 0.00713 ± 0.002 s⁻¹ |
| G37A C50A | 1.38e-05 ± 4.6e-06 s⁻¹ |  |  |  |  |  |  |
| G43A C71U | < 1e-05 s⁻¹ |  | < 1e-05 s⁻¹ |  |  |  |  |
| A6G U55A C68G | 2.16e-05 ± 2.8e-06 s⁻¹ |  |  |  |  |  |  |
| A52U U55A | 0.000247 ± 3.7e-05 s⁻¹ | 2490 ± 990 µM |  |  | 3.67e-05 ± 1.3e-05 s⁻¹ | 0.000147 ± 1.8e-05 s⁻¹ | 0.000191 ± 1.8e-05 s⁻¹ |
| C11A A12C | 0.00026 ± 5.5e-05 s⁻¹ | 900 ± 380 µM |  | 4.82e-05 ± 1.5e-05 s⁻¹ | 0.000103 ± 1.8e-05 s⁻¹ | 0.000182 ± 3.2e-05 s⁻¹ | 0.000406 ± 0.00015 s⁻¹ |
| G29U C61A | 1.26e-05 ± 2.3e-06 s⁻¹ |  | < 1e-05 s⁻¹ |  |  |  |  |
| G40U G41U | 8.36e-05 ± 7.4e-06 s⁻¹ | 901 ± 330 µM | < 1e-05 s⁻¹ |  | 2.92e-05 ± 8e-06 s⁻¹ | 7.1e-05 ± 8.5e-06 s⁻¹ | 7.34e-05 ± 7e-06 s⁻¹ |
